Patent US6830925

How the values were obtained:
CREBtide = biological target: T1, CREBtide
T1 chain: KRREILSRRPSYR

[1] = biological target: T2, Calmodulin Dependent Protein Kinase Substrate
T2 chain: PLSRTLSVSS

[2] = biological target: calmodulin (CalBiochem), P0DP23
Syntide 2 = biological target: T3, Syntide 2
T3 chain: PLARTLSVAGLPGKK

B1: Xpress-CaMK-X1 fusion protein (CaMK-X1 coding sequence fused to the Xpress epitope, stably expressed in HEK293 cells) (protein)
chain: MGRKEEDDCSSWKKQTTNIRKTFIFMEVLGSGAFSEVFLVKQRLTGKLFALKCIKKSPAFRDSSLENEIAVLKKIKHENIVTLEDIYESTTHYYLVMQLVSGGELFDRILERGVYTEKDASLVIQQVLSAVKYLHENGIVHRDLKPENLLYLTPEENSKIMITDFGLSKMEQNGIMSTACGTPGYVAPEVLAQKPYSKAVDCWSIGVITYILLCGYPPFYEETESKLFEKIKEGYYEFESPFWDDISESAKDFICHLLEKDPNERYTCEKALSHPWIDGNTALHRDIYPSVSLQIQKNFAKSKWRQAFNAAAVVHHMRKLHMNLHSPGVRPEVENRPPETQASETSRPSSPEITITEAPVLDHSVALPALTQLPCQHGRRPTAPGGRSLNCLVNGSLHISSSLVPMHQGSLAAGPCGCCSSCLNIGSKGKSSYCSEPTLLKKANKKQNFKSEVMVPVKASGSSHCRAGQTGVCLIM
**Q.** For B1, which “in vitro kinase assay (32P incorporation) with immunoprecipitated CaMK-X1” value (CREBtide) is on record?
**A.** CaMK-X1 phosphorylated CREBtide and Syntide 2 in vitro

**Q.** And the “in vitro kinase assay (32P incorporation) with immunoprecipitated CaMK-X1” value [1]?
**A.** In contrast, CaMK-X1 could not phosphorylate control peptide

**Q.** And the “in vitro kinase assay (32P incorporation into peptides) with and without calmodulin” value [2]?
**A.** The degree of phosphorylation is augmented in the presence of calmodulin

**Q.** And the “in vitro kinase assay (32P incorporation) with immunoprecipitated CaMK-X1” value (Syntide 2)?
**A.** CaMK-X1 phosphorylated CREBtide and Syntide 2 in vitro

B2: Histidine tagged CaMK-X1 expressed in Sf9 cells and purified with a Ni2+ affinity column (protein)
chain: MGRKEEDDCSSWKKQTTNIRKTFIFMEVLGSGAFSEVFLVKQRLTGKLFALKCIKKSPAFRDSSLENEIAVLKKIKHENIVTLEDIYESTTHYYLVMQLVSGGELFDRILERGVYTEKDASLVIQQVLSAVKYLHENGIVHRDLKPENLLYLTPEENSKIMITDFGLSKMEQNGIMSTACGTPGYVAPEVLAQKPYSKAVDCWSIGVITYILLCGYPPFYEETESKLFEKIKEGYYEFESPFWDDISESAKDFICHLLEKDPNERYTCEKALSHPWIDGNTALHRDIYPSVSLQIQKNFAKSKWRQAFNAAAVVHHMRKLHMNLHSPGVRPEVENRPPETQASETSRPSSPEITITEAPVLDHSVALPALTQLPCQHGRRPTAPGGRSLNCLVNGSLHISSSLVPMHQGSLAAGPCGCCSSCLNIGSKGKSSYCSEPTLLKKANKKQNFKSEVMVPVKASGSSHCRAGQTGVCLIM
**Q.** B2 was tested. Which “in vitro kinase assay (32P incorporation) with Ni2+ purified CaMK-X1” value (CREBtide) did it give?
**A.** CREBtide and Syntide 2 are phosphorylated by the purified CaMK-X1

**Q.** And the “in vitro kinase assay (32P incorporation) with Ni2+ purified CaMK-X1” value [1]?
**A.** Syntide 2 and CREBtide had higher incorporation of ^32P than the control peptide

**Q.** And the “in vitro kinase assay (rate of peptide phosphorylation) with and without Ca2+ and calmodulin” value [2]?
**A.** The rate of phosphorylation is increased in the presence of Ca^2+ and calmodulin

**Q.** What about the “in vitro kinase assay (32P incorporation) with Ni2+ purified CaMK-X1” value (Syntide 2) of the same protein?
**A.** CREBtide and Syntide 2 are phosphorylated by the purified CaMK-X1
